The values that follow come from doi:10.1101/154351 (bioRxiv, 2017).

The target in this assay is TRC35 (residues 23 to 305) (human, UniProt Q7L5D6 23-305). Briefly: crystal structure.
TRC35 (residues 23 to 305), sequence (Q7L5D6 23-305): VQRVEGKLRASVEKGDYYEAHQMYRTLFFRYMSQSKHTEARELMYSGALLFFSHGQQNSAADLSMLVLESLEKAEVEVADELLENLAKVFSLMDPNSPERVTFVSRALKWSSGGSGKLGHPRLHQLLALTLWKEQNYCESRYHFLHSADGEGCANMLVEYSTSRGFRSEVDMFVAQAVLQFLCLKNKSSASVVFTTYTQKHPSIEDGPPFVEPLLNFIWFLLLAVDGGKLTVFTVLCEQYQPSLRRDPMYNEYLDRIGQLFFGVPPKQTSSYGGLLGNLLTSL

B1: Bag6 minimal TRC35-binding domain containing the NLS (residues 1000-1054) (domain or fragment)
chain: ETEPWAAAVPPEWVPIIQQDIQSQRKVKPQPPLSDAYLSGMPAKRRKTMQGEGPQ
Regarding B1, the binding result is given as “binds”.
